Each block holds one substance with its values, some of them ahead of it.
Biological target: tapasin-ERp57 heterodimer, endogenous (human (endogenous in human cell lines)) (UniProt O15533)
Assay: co-IP

Chain of UniProt O15533 (O15533 21-448, chain 1 of 2): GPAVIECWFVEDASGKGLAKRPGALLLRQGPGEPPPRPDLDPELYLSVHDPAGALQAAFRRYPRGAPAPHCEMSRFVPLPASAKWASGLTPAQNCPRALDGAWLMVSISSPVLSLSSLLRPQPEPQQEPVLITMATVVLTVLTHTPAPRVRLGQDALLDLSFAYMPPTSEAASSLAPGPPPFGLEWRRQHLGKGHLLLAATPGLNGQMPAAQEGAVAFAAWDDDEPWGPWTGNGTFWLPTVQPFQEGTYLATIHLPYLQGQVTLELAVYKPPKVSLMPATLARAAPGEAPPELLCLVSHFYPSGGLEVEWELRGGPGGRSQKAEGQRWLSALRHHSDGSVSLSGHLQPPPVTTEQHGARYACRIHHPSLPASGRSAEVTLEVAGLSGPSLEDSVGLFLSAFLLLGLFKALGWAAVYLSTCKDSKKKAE
Chain of UniProt O15533 (P30101 25-505, chain 2 of 2, further chain): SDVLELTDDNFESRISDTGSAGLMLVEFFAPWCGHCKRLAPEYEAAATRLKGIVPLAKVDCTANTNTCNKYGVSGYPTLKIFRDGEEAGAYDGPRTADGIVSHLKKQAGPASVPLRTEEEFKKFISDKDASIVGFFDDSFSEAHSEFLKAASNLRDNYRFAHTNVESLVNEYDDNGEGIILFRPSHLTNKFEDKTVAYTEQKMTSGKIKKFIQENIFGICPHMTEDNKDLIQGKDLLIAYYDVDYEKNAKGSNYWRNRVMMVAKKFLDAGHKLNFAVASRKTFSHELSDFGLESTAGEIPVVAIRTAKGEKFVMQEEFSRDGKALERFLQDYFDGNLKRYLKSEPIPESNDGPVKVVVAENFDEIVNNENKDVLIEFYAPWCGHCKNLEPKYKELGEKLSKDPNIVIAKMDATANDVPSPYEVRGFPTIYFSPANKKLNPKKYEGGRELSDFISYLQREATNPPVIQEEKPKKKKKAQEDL

percent of HLA-A2-CFP precipitated by PaSta1 alone (HeLaM.A2-CFP cells): 20%
Substance: CFP-tagged HLA-A2 (from UniProt P61769 21-119) (complex)

percent of endogenous MHC I precipitated by PaSta1 alone (HeLaM.A2-CFP cells): 60%
Substance: endogenous MHC I of HeLaM cells (HLA-A6802, -B1503 and -C1203) (from UniProt P61769 21-119) (complex)

percent of PLC-associated HLA-C4 precipitated by PaSta1 alone (C1R.A2-His cells): 60%
Substance: HLA-C4, endogenous in C1R cells (from UniProt P61769 21-119) (complex)

Source: article PMC3438949
